This experiment deals with SARS-CoV-2 Delta Spike antigen (SARS-CoV-2 Delta).

Anti-S1 antibody DZIF-10c displayed an EC50 of 6.9 nM.

The substance Anti-S1 mAb ImdevimAb (antibody) displayed an EC50 of 0.01 nM.

The values are drawn from US20260234223A1.
